Assay [1] has as its target human C-domain ACE (tACEΔ36-g13sol) R186H (human).
In assay [2] the target is human C-domain ACE (tACEΔ36-g13sol) R522K (human).
The target in assay [3] is human C-domain ACE (tACEΔ36-g13sol) R522Q (human).
The target in assay [4] is human tACEΔ36-g13sol (C-domain of angiotensin-I-converting enzyme) (human).

DRVYIHPFHL [Angiotensin I (Asp-Arg-Val-Tyr-Ile-His-Pro-Phe-His-Leu)]: the Km of angiotensin I cleavage, ITC kinetic assay (progress curve), 37 °C, 0 mM NaCl, 50 mM TAPSO pH 7.5, 10 μM ZnSO4 came to 0.085 mM in assay [1], 0.13 mM in assay [2], 0.092 mM in assay [3] and 0.049 mM in assay [4]. In addition, the Km of angiotensin I cleavage, ITC kinetic assay (progress curve), 37 °C, 20 mM NaCl, 50 mM TAPSO pH 7.5, 10 μM ZnSO4 was 0.095 mM in assay [1], 0.119 mM in assay [2], 0.077 mM in assay [3] and 0.036 mM in assay [4].

Values taken from paper PMC3894356.
